# Data reported in patent US20090214427A1 (LICENTIA, published 2009).
# Positions of bridges follow the written chain, without caps; N, C: chain ends. Non-standard residues stand in square brackets, D forms with d. No end group written: not given here. Sar = CNCC(=O)O
# B1: ARFKVWWAAG (SEQ ID NO:56) (peptide)
# peptide: ARFKVWWAAG
# notes: S1A variant of HK2p01
# B2: synthetic peptide HK2p06 (CYRMPTCMQRD) (peptide)
# peptide: CYRMPTCMQRD
# modifications: disulfide 1-7 (inferred)
# notes: Two Cys residues, said to indicate a cyclic structure
# B3: phage carrying peptide HK2p04 as part of pIII protein (peptide)
# chain: CFRQGCWVIT
# modifications: disulfide (positions not given here); also: displayed as fusion to phage pIII protein
# notes: also called phage p04; HK2p04 phage clone (X10 library); not shown: pIII coat protein of fUSE-5 filamentous phage
# B4: phage carrying peptide HK2p02 as part of pIII protein (peptide)
# chain: AARRPFPAPS
# notes: also called phage p02; HK2p02 phage clone (X10 library); not shown: pIII coat protein of fUSE-5 filamentous phage
# B5: phage carrying peptide HK2p06 as part of pIII protein (peptide)
# chain: CYRMPTCMQRD
# modifications: disulfide (positions not given here); also: displayed as fusion to phage pIII protein
# notes: also called phage p06; HK2p06 phage clone (X11 library); not shown: pIII coat protein of fUSE-5 filamentous phage
# B6: phage carrying peptide HK2p03 as part of pIII protein (peptide)
# chain: PARRPFPVTA
# notes: also called phage p03; HK2p03 phage clone (X10 library); not shown: pIII coat protein of fUSE-5 filamentous phage
# B7: synthetic peptide HK2p01 (SRFKVWWAAG) (peptide)
# peptide: SRFKVWWAAG
# B8: GAARR-Sar-FPAPG (SEQ ID NO:52) (peptide)
# peptide: GAARR[Sar]FPAPG
# B9: SRFKVWAAAG (SEQ ID NO:62) (peptide)
# peptide: SRFKVWAAAG-OH
# B10: SRFKVAWAAG (SEQ ID NO:61) (peptide)
# peptide: SRFKVAWAAG-OH
# B11: SRFAVWWAAG (SEQ ID NO:59) (peptide)
# peptide: SRFAVWWAAG-OH
# B12: AAARRPFPG (SEQ ID NO:48) (peptide)
# peptide: AAARRPFPG
# B13: GAARR-Sar-F-Sar-APG (SEQ ID NO:54) (peptide)
# peptide: GAARR[Sar]F[Sar]APG
# B14: GAARRPFPAPG (SEQ ID NO:51) (peptide)
# peptide: GAARRPFPAPG
# B15: GAARRPF-Sar-APG (SEQ ID NO:53) (peptide)
# peptide: GAARRPF[Sar]APG
# B16: SRAKVWWAAG (SEQ ID NO:58) (peptide)
# peptide: SRAKVWWAAG-OH
# B17: SRFKAWWAAG (SEQ ID NO:60) (peptide)
# peptide: SRFKAWWAAG-OH
# Target: T1, recombinant wild-type (wt) human kallikrein 2 (human, UniProt P20151 25-261)
# T1 construct: Enzymatically active hK2; in phage assays captured on wells by MAb 5E4, in enzyme assays in solution; also called hK2; HK2
# Assay: Lineweaver-Burke plots; cleavage of 0-400 µM S-2302 by 0.2 µM hK2 at 4 µM peptide
row,Binder,Ki [nM]
1,B1,1410

# Target: T1, recombinant wild-type (wt) human …
# Assay: competition phage IFMA on hK2 captured by MAb 5E4; 5 µM synthetic peptide
# Experimental: The phage IFMA was performed essentially as described (Wu, Leinonen et al. 2000). In this assay, 50 ng of hK2 in 200 μL of assay buffer was captured onto wells coated with MAb 5E4. After washing, 2.5 μL of phage (10⁸-10⁹ infectious particles) and 200 μL assay buffer were added to wells. After incubation for 1 h, the wells were washed and filled with 200 μL of assay buffer containing 100 ng Eu-labeled anti-phage polyclonal antibody recognizing the M13 coat protein of the phage. After incubation for 60 min, the wells were washed 4 times, and enhancement solution (Perkin Elmer-Wallac) was added. The fluorescence was quantified with a Victor fluorometer in time resolved mode (Perkin Elmer-Wallac).
# The relative binding sites of the peptides on hK2 were mapped by competition experiments with chemically synthesized and phage peptides. The protocol was based on the IFMA method described above except that phages and the synthetic peptides were reacted together with hK2. Briefly, each of the synthetic peptides at 5 μM concentration was added into the wells in which hK2 had been captured by MAb 5E4. After incubation for 30 min each phage was added. After 1 h incubation, the wells were washed and the assay was as described above for IFMA.
row,Binder,binding result
1,B2,binds

# Target: T1, recombinant wild-type (wt) human …
# Assay: phage display selection on hK2 captured by MAb 5E4, four rounds
# Experimental: The phage display libraries were constructed in fUSE-5-phage as previously described (Koivunen et al. 1994). We screened libraries with the structures CX₇C, CX₈C, X₉, X₁₀, X₁₁, CX₃CX₃CX₃C, CX₈, CX₉, X₂CX₁₁C, where C stands for cysteine and X for any of the randomly occurring amino acids. Screening was performed according to Koivunen et al. (Koivunen et al. 1994). We screened each peptide library against hK2, which was captured by MAb 5E4 coated into microtiter wells (Wu, Leinonen et al. 2000). MAb 5E4 binds PSA and hK2 in an equimolar manner and reacts with an epitope which is remote from the active site of these enzymes (Stenman et al. 1999), (Leinonen, Wu et al. 2002). Twenty four ng of hK2 was incubated in antibody-coated wells for 30 minutes at 37° C. in Tris/NaCl buffer followed by washing of unbound hK2. An aliquot of phage libraries containing 10¹⁰-10¹¹ transducing units was added into the microtiter wells in 100 μL of 1% BSA in TBS, which was composed of 0.05 mol/L Tris buffer (pH 7.7) containing 0.154 mol/L NaCl and 8 mmol/L NaN3. Incubation took place at 4° C. with gentle shaking for 16-24 hours in the first round and for 1 hour for the following three rounds. The phages were removed and wells were washed with TBS containing 0.5% Tween 20. For elution of the bound phage 0.1 M Glycine-HCl, pH 2.2 containing 0.1% BSA was added. The eluted phage suspension was neutralized with 1 M Tris buffer, pH 9.0, amplified by infection of Escherichia coli K91 cells and purified by polyethylene glycol precipitation (Wu, Leinonen et al. 2000). After four rounds of selection and amplification single stranded DNA from individual phage clones was prepared. The peptide sequences were determined after amplification by PCR (Koivunen et al. 2001). The relevant part of the viral DNA was sequenced with an ABI 310 Genetic analyzer and Dye Terminator Cycle Sequencing Core Kit (PE Applied Biosystems, Foster City, Calif., USA) using the primer 5′-TAATACGACTCACTATAGGGCAAGCTGATAAACCGATACAAT-3′ (SEQ ID NO: 130).
row,Binder,binding result
1,B3,binds
2,B4,binds
3,B5,binds
4,B6,binds

# Target: T1, recombinant wild-type (wt) human …
# Assay: cell-based or functional assay
row,Binder,IC50 for hK2 inhibition (cleavage of S-2302) [µM]
1,B7,3.4
2,B1,2.2

# Target: T1, recombinant wild-type (wt) human …
# Assay: cell-based or functional assay
# Remark: another data set of the same source
row,Binder,inhibition [%]
1,B8,0
2,B9,30
3,B10,10
4,B11,0
5,B12,37
6,B13,0
7,B14,69
8,B15,24
9,B16,0
10,B1,94
11,B17,39
